Measurements reported in the DeepSol protein solubility set.

Test: soluble on expression in E. coli; label from the status in PepcDB or PDB records

Row | Sequence | soluble on expression in E. coli
1 | MAHHHHHHMGGAIYNAVNIAEIVKRRIAGLHQITELGSELVRDEYEPIDRTQNPENVVVERKVSTILITLSRNCLDKSNPGYQEPIADSEVTEQERRDPNMSRRGGRGGIRGGRGGSRGGRGGSRGGRGGSRGGRGVAAIDRRDDREN | not soluble
2 | MAHHHHHHMGKHIRILKNQYLQFMSKRCIQSKAAFNICGKINVENPIVELDGDEMTRIIWKDIKEKLILPYVNLKIKYFDLSIENRDKTNDQVTIEAAEEIKKTSVGIKCATITPDAARVKEFNLKEMWKSPNGTIRNILDGTVFRTPILIKNIPKLVPNWKKPIVIGRHAYADQYKQKSLKIEKSGKFEIVFTPDDNSQVLRETVFHFKSPGVCLGMYNTEESIRNFALSCFQYALDLKMPVYMSTKSTILKIYDGLFKDIFDEIYEKQFKKSFEQHNLWYEHKLIDDMVAQVLKSEGGFLWACKNYDGDIQSDAVAQGYGSLGLMSSVLLCPDGVTCVSEAAHGTVTRHYRAYQKGEKTSTNPIASIFAWTKGLEHRAKLDKNDNLKQFCYALEKACIETVEDGLMSKDLAGCIKGIKNVTEKDYIFTQDLINAINEKLKLKILQNQSKNDPQATSYKLKNDNWNFYAPQEHST | not soluble
3 | MAHHHHHHMGLEIFEIDTSTPHTGVVIDGTTACREANSGWVTLRAKTPLSAGQCQWAMKVIDQGEGNDGSGLMMGLLPRLNSQQEVAMGSKYISELGGWCLSRAGDSYGCWKCDKMPFSTGCVVEFDWDAASRTLYIVSGKRKASGHIPNVSEADVVYPAFSMFYLNQKLAFV | soluble
4 | MAHHHHHHMGNKLCCINNDLQNSKSSIDIYKYDPREIYGDYDDWTLESWIDKYKNGNSIKVAFPDGNEIQCHFKIFLKERCFELSLDNKVRVIKFNDINCILHRNSCESLLESEQNLLKSPKVIGIRLISTLKAIAFAMDSPGEARMFYEFIEKYCLNG | not soluble
5 | MAHHHHHHMGTLEAQTQGPGSMAIDPNSIGAVTEPMLFEWTDRDTLLYAIGVGAGTGDLAFTTENSHGIDQQVLPTYAVICCPAFGAAAKVGTFNPAALLHGSQGIRLHAPLPAAGKLSVVTEVADIQDKGEGKNAIVVLRGRGCDPESGSLVAETLTTLVLRGQGGFGGARGERPAAPEFPDRHPDARIDMPTREDQALIYRLSGDRNPLHSDPWFATQLAGFPKPILHGLCTYGVAGRALVAELGGGVAANITSIAARFTKPVFPGETLSTVIWRTEPGRAVFRTEVAGSDGAEARVVLDDGAVEYVAG | soluble
6 | MAHHHHHHMGTLEAQTQGPGSMENKEKIYEGKAKIIFATLNPLEVIQHFKDEITAFNNKKAAIIHEKGILNNYISSFLMKKLIDKGIKTHFISLLNQREQLVKKITIIPIEVVIRNLAAGNFSKRFQIADGTPFKSPIIEFYYKNDELSDPMVSEGHILSFQWLTNQELEKIKILSLKINNILSELFFNVGIKLVDFKLEFGKLHNDEQSDLFLADEISPDTCRLWDISTNKRLDKDRYRLNLGNVIEGYREVAHKLNAIPNL | soluble
7 | MAHHHHHHMGTLEAQTQGPGSMKLLFVCLGNICRSPAAEAVMKKVIQNHHLTEKYICDSAGTCSYHEGQQADSRMRKVGKSRGYQVDSISRPVVSSDFKNFDYIFAMDNDNYYELLDRCPEQYKQKIFKMVDFCTTIKTTEVPDPYYGGEKGFHRVIDILEDACENLIIKLEEGKLIN | soluble
8 | MAHHHHHHMGTLEAQTQGPGSMSGDRDDPRYPYPKDDAELRRRLTPMQYEVTQHAATEPPFTGEYTDTEDAGIYHCVVCGTALFESGAKYHSGCGWPSYFKPIDGEVIDEKMDYTHGMTRVEVRCNQCGAHLGHVFEDGPRDKTGLRYCINSAALNFEAKPERK | soluble
9 | MAHHHHHHMGYTRERTNRHFFVARANAFFSRLPIARVQRSLAMEAVREGRMRPWKYTKEQILGAPVTCNFEYNPRPVRLIGTVMDAHTEETSIKGGLKVYARNEETNMMLWIPPGNPKLRHEVTSTKGSFQHYLDERDKWDEAWITGRARMK | not soluble
10 | MAHHHHHHMHNSVPASNTCSPFREETVSKRGKRSRGTGGDDKITRGTCSQPFSVITLPPGKLLEWLVCSPCRVYDVNLPRSRNNDNNISSLQCAVLPNFFVEYGGRSYSCVAKVCKPQLRKVLLRALAAVRQEMGSVDDIPHDSLLVVAVSPINAFSSECIHDASRTAMPRAREGCKIVGLCVARELSAPHRMHCESNWSHEKSEASGVGAAVQEGLGDCWEEDATRVGGTNNVRKAFCGVQLVWVADCYRRHGVAKVLVDTARRHISYGFEVPVERVAFSEPTSLGKLFAKSYSGRPDFLIF | not soluble
11 | MAHHHHHHMHRQTAALQGSTVPAFCELLHSRGEAWLGLLGAALALPVHNATADGPSPNSFATPPSCSPSDAPALSEACSRLLSTYFIAAKAQCVEGADASMMKTLVKLTLAHTEWRTRLAMALPQRTGHPTAASSPTRAVTALIDAVAAVGLCDATLHFFTAKTLLGECVFRLLESEAWPTWAPEYCSAPLPQQAEHGVSGAFVHGEGGEPPDWQRLYAEVSHRTRLVPASMHTTEPPSPAFSILQLAQDLQDHLERTVQQSHLALSFTEGGV | not soluble
12 | MAHHHHHHMIENLQNCKKLRLLELGYNKIRMIENIEHLTNLEELWLGKNKIEQINLPYLPKLKKLSVQHNRLTDICEKSIKNILCVEELYISYNKINHIIDTFKDLKHLKVFDLSYNEINNISICSYLKSLEELWLNNNNIDNLEMIKKLSTIENLKTLYLEKNKIQDNLKENYRKTIIHILPQLKQLDALPIPSSPTLQK | not soluble
13 | MAHHHHHHMIFVERQTDTENAAYLLAKMLGIHIRNIGMIHGGMQQRQRDYIMNGFKHSQTRILVATDVASRGIDFPDVTCVVNFIAPKSIDRYCHRIGRTGRAGRTGDSFTFIGHSDGCLAKDLVGYLKKCGMEVPQKLLDIAGKYVQYEEQRHLRRSWSGRSGRGFKRQKQDSPAPYQSSSW | not soluble
14 | MAHHHHHHMIKLGNFAWQLLTRADGSNLGGVLRGSRKVCSLSVARLSKHPYKPKTKEVIHPHVTPPEFLSPSDCFEAKTDELQQYLPSNYYRTKWVESLRAGEHLGSDYPWNLLPHWKFWKKRKYNVVYGEVPWFVSKVKGVSYYQRLNVWMVQWVEEGVHRIRRFRCAFGVLQAKLAAEQFRRNLEESGRVDNRKSERQLRMDYIQKRDERLLRKKRYSKVSKGQF | not soluble
15 | MAHHHHHHMITLQLEQHRQQLENELRKVQLQQAQQQQQLQHVQHHHNQHNQHQQQQQLQYQQSLPPVQTTMVTIDGRLYRMVSASSGEAFVNRGQPCRDLHFVDRSALVSDGSAGADGRTEAAAPQPSNHPGVCMPVSPQAELSPQQQQQHMIITVAGDRSALGETTSAAAAASLAKSSAPGTNVMLVMPTPSASHKVKYGY | soluble
16 | MAHHHHHHMKAASAAAPAAQTKAAAEAKAATATTAASSLSLSLLQYGASLYEAHTHLPEAAVARLPLNRYADYLRHFGFSMERESRGAAAPGTTLALDCTSPNHKTQAPLDGRWGKRVETDTSYDPVEVAGWGLPEALRCEADQQCNAVGSLSDATEWSAIAKQLVHPFMSVTWRQTATQCTMKKACCVYMWLCSHMTLQVSVPGAEEDAKEDSGGVSTVGLPSAAKAASLARKANRPARKVKEVPTTLEPAAPPDPLLVALQTRRAPAPVLADVYMHMLTSVGVLCEVVVGQLKGAAPEEAFEWSWNMVTVDGRQYLVDVSAALSNGVLRSAASYSDVPSSVAVPEAGKGQRAGNAAGRGKAATPSQSSPPAGSGAVPCSESVQLLPVTPERLRREFFFFAHPTYFLASHFPADPAKALVRTAMRAVQWGVRPRLTPAFYYYGLQLASHKTHSTFAASGSPSYVSFVNHHASTTELCCALYMGTLGTLPEDLSQTAPLGAEWVWHQREESTSTDTFTLTVPQAGYYVVVIGARPIRADPYSAVFTVAGETAFTPVVSYEMRVGFTPSSSPVLPRQYLSPSICRLITPLCSQILPGKHTFCVMPSCSNVLAVAVVKFVAAAATRTLLSLLPFQPRSAAFEGDVDVRSGECVEVWVLYGAPDRNGQELSQRAAAAAPPKAAATPCRSPTPAAKFKAADKKKREASAEHQQQLSALESQLAHLTQALHKGEVFQRCVGGIEVRHFVSPAVVGVIQPQPMVEQEQSITLRRLAGVTDALLREAEEVVRRQPAPVGSYFGAVEAAAAKS | not soluble
17 | MAHHHHHHMKALQRGWRVICATRGGVPIHGSPLYNDFTSLQQKHGDTLSQGVAHDTCHVPQPLEFVSLDATSRLQVFQFMDDHPDASAIISCIGLLTRDHEMARRVCGDANVNIAAALYERRAVARRMVLISAEPVGTRAGFFLNSRWALKGYFMGKRVAERAVLENLGDDGAVLRPGFIYGTRHVPLGEGCVPVPLWPIGKPLEAVLRPLHLHGLLVPPISVDVVAEAAVRLAEAPGPSTVLDYYGMQQVCGLPQDGHHVLGG | not soluble
18 | MAHHHHHHMKELVSSFLNNLSQVSSELSCCKNKKFHVDNVSLCGIEDVLHNRDRSSLIDKEKINTLMELYKNENIYESYEEYDIDKYEKIKNNNILKNMGGNKLNVCNACLFCNNNNSQNHMNKNKNVSENINNVIDLDDEILIANFPFNSLRDVENLTYTNSEHTLNNKEYSYIKNSIDLDFDQQIKNQKKNNNSKNSSHLYNEIVKEGEYDNDDSPNFDEDSSQFKFSVLNNIKNNIHNTKDELTNNYNIIKNTLNQDYEKNIDQKEKHDIIVDNMVNSVDYQNDMDTNIKTKKKKKNQAYSNFYAKSDLPSSNIDEGSCKGCKASDTSSEFFSVASGMKPNN | not soluble
19 | MAHHHHHHMKKNLIRWGEKVTDELTKVTLTDKPLGTDFDQGIENLQIKFKELFKIWKNASNKLINDFTSKLDTTSYLSSLQNFVDNEYEFYDSASSVCDEETNS | not soluble
20 | MAHHHHHHMKKRYGNAGDWAVVTGASEGIGYAMALDLGRRGFNVCVIARTLSKLENVVEELKQLGVQGKAISFDFASATPKQYDDMFAELDKIEIAVLVNNVGVNYTYTNYFDEVDLETDLRLLKVNCESSVRMTKYVVPKMKAKRCGAIVMLGSVSAVTPAPLLCTYAGTKAFNLSFGSGLYYELKQFGIDVLAVSPNMVVSKMTQGLSSRKPRETFLMVNADRMAHQTLDKLGSVPQTPGHCNHAVLEAIVRALPTGYVSNKILETHKSIKRKAERKRE | not soluble
21 | MAHHHHHHMKLFLTVVERHNSTNSSDVTPTDDVALFDPGVWSRTATSEMARRNVSASYVAQQVYRHAALTQLAKVALSSAVCFRYGPRPPPHLDSFLFHKRCRPTGHGRCGTPPAAAAPPVCAPSPLISSSSSSFSVNMAATSPGTGQQRSTAAGASDSATEYDSLLALWLRELLSGTDSSVTVTALLLFVEGTAIDMATGSKVHTPLNIGSGTARQLRTHEDAMAFLHACESTLHHSAAEFPRCPYHVCVAVLVGTHGGSHGKNPVIFLDVAAAAPESAGAHQEVRLREQVALFGRQLGADATTATPHARQRTRKAEDEQWLSLLQSCQLSRASLVGLVYVACEAGHDPFGHSRVEGTDCDPFTLASVLRQRALLEAVNNGVLHPQLRKLSRARNRATARAVKLPASGATTRSRAPASPLKGRPSRGRQRPQQHSPKLPYLARDSVPPRRTQEHSIVFYGVSRCGRSADLLARIEEEEHHARVALSSAEQRAWNLAELRWILRAHPPGKSIDAMLRRFAHNVDGVSRPEQQHPHSVPPRFLPPPLNVAQLATAISRPSTTATRRSSFASATRTPESTSPGGTVRTRVTASMLPTSPSRLALTSTFFTRRITTPLFFREAGSPPQNQDDPRAHSASSHVAVRGHNATELERRRLKSGATFSLATDSPNARACTTARRLSAIETALLARAHSSSQRSLPSPSPCTGEVERLYPLVRAFHVEMCEQDALMAEELMMRSCIEHKEKNCRKTLSVARAESVRRLSVWWPSETGTQPQREPQVPDSPRWRPAKPLPLRIFFQQ | not soluble
